The target of the test is T1, human PTH-1 receptor (Homo sapiens, UniProt Q03431).
T1 construct: expressed in transfected cells; host or cells: HKRK-B7 (LLC-PK1 stably transfected, pCDNA-1-based plasmid)
T1 sequence (Q03431 27-593): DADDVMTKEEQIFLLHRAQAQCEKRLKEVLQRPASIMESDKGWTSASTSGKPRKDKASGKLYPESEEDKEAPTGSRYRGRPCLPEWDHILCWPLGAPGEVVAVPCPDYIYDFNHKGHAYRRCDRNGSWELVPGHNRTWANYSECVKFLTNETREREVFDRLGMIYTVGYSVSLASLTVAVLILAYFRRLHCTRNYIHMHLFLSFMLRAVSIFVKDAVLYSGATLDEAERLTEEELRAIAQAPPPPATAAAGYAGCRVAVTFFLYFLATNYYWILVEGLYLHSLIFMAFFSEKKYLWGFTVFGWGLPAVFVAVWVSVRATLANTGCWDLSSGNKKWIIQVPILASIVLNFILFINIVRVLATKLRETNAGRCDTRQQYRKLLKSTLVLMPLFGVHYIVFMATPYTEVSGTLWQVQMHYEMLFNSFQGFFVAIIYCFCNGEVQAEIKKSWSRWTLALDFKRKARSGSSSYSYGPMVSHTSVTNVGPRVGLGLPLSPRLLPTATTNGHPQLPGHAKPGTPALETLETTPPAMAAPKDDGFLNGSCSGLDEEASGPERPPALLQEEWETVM
Nature of the test: cAMP-stimulating activity in HKRK-B7 cells (LLC-PK1 stably transfected with human PTH-1 receptor), RIA. The test is classed as cell-based. The note with it: HKRK-B7 cells. As for the experimental part:
FIG. 2. cAMP-stimulating Activity of PTH Fragments in LLC-PK1 Cells. A) Rat PTH(1–34) analog or amino-terminal rPTH fragments were tested for cAMP-stimulating activity in an LLC-P1-derived cell line (HKRK-B7) stably transfected with the human PTH-1 receptor. Cells were treated with peptide at the indicated doses for 60 min at 22° C. Intracellular cAMP was measured by RIA, as described in Experimental Procedures. Shown are combined data (mean±s.e.m.) from 3 separate experiments, each performed in duplicate. B) HKRK-B7 cells, or untransfected LLC-PK1 were treated with rPTH(1–34) or rPTH(1–14), and intracellular cAMP was measured. Shown are data (mean±s.e.m.) from a single representative experiment performed in duplicate.
FIG. 3. Alanine-scan of PTH(1–14). HKRK-B7 cells were treated with 100 mM of one of 14 different rPTH(1–14) analogs, each having a different alanine-substitution at the indicated amino acid position. The resulting cAMP levels were determined as described in Experimental Procedures. Shown are the combined data (mean±s.e.m.) from three separate experiments, each performed in duplicate. The mean (mean±s.e.m.) basal cAMP levels observed in the three experiments was 2.1±0.1 pmole/well, and the maximum response to rPTH(1–34) at 0.1 mM was 254±16 pmole/well.
Cell Culture and DNA Transfection: COS-7 and HKRK-B7 cells were cultured at 37° C. in Dulbecco's modified Eagle's medium (DMEM) supplemented with fetal bovine serum (10%); penicillin G (20 units/ml), streptomycin sulfate (20 μg/ml) and amphotericin B (0.05 μg/ml) in a humidified atmosphere containing 5% CO2. Twenty-four to 16 hours prior to assay, cells in 24-well plates were shifted to a humidified incubator containing 5% CO2 that was set at 33° C. Stock solutions of EGTA/trypsin and antibiotics were from GIBCO; fetal bovine serum was from Hyclone Laboratories (Logan, Utah). Derivation and characterization of the HKRK-B7 cell line by stable transfection of LLC-PK1 cells with a pCDNA-1-based plasmid (In Vitrogen, San Diego, Calif.) encoding the hPTH-1 receptor was described previously (Takasu, H. and Bringhurst, F., Endocrinology, in press (1998)). These cells express PTH-1 receptors at a surface density of about 1×10^6 PTH-binding sites per cell. The HKRK-B7 cells were used for functional assays 24 to 72 hours after the cell monolayer reached confluency.
Intracellular cyclic AMP: Transfected COS-7 or HKRK-B7 cells were rinsed with 500 ml of binding buffer, (50 mM Tris-HCl, pH 7.7, 100 mM NaCl, 5 mM KCl, 2 mM CaC12, 5% heat-inactivated horse serum, 0.5% heat-inactivated fetal bovine serum) and 200 ml of IBMX buffer (DMEM containing 2 mM IBMX, 1 mg/ml bovine serum albumin, 35 mM Hepes-NaOH, pH 7.4) and […] of binding buffer or binding buffer containing various amounts of peptide were added. The plates were incubated for 60 minutes at room temperature. The buffer was then withdrawn and the cells were frozen on dry ice, treated with 0.5 ml of 50 mM HCl, and refrozen. After the thawing, the lysate was diluted 30-fold in dH20 and an aliquot was analyzed for cAMP content by determined radioimmunoassay using unlabeled cAMP as a standard.
Amino-terminal peptide fragments based on the rat PTH sequence and ranging in length from PTH(1–9) to PTH(1–15) were synthesized and tested for activity in an LLC-PK1-derived cell line called HKRK-B7 which stably expresses high levels (1×10^6 receptors/cell) of the cloned human PTH-1 receptor (Takasu, H. and Bringhurst, F., Endocrinology, in press (1998)).

Where no end group is shown, it is not given here.

Data on 2 substances can be found in patent US7169567B1, “Screening assay utilizing the PTH receptor” (The General Hospital Corporation, priority 1998, dated 2007).

With “PH(1–13): Amino-terminal peptide fragment based on the rat PTH sequence, residues 1–13, C-terminally amidated (AVSEIQLMHNLGK-NH2)”, the “increase in cAMP accumulation (in words)” value is recorded as “little or no increase”.

As to “PTH(1–15): Amino-terminal peptide fragment based on the rat PTH sequence, residues 1–15, C-terminally amidated (AVSEIQLMHNLGKHL-NH2)”, the “doses required for cAMP activation compared with the dose required for PTH(1–34)” value is “five to six orders of magnitude higher”. In addition, for the setting “60 min at 22° C.”, the “increase in intracellular cAMP levels relative to the basal cAMP level” value is reported as “about 20 fold”.
